Source: PMC9792355

Key:
Assay in all cases: luciferase complementation assay
[1] = molecular target: N1-fused SRC kinases (mean among the nine SRC kinases); conditions: HEK293T cells
[2] = molecular target: C1-fused SRC kinases (mean among the nine SRC kinases); conditions: HEK293T cells
[3] = molecular target: N2-SKAP2 DomDIM2 deletion mutant (DIM domain alone); conditions: HEK293T cells; read off a plot
[4] = molecular target: DomDIM1 SKAP1 mutant (DIM domain of SKAP1); conditions: HEK293T cells; read off a plot
[5] = molecular target: N2-SKAP2 (SRC kinase adaptor phosphoprotein 2, wildtype) (UniProt O75563); conditions: HEK293T cells, read off a plot

Row | Substance | ratio to parent [1] | ratio to parent [2] | response (NLR normalized to HCK-N1) [3] | response (NLR normalized to HCK-N1) [4] | also measured
1 | N2-SKAP2 (SRC kinase adaptor phosphoprotein 2, wildtype) (from UniProt O75563) K161E | 1.12 | 0.9 | – | – | –
2 | N1-fused HCK (hematopoietic cell kinase), wildtype (from UniProt P08631-2) Y501F | – | – | 6.4 | 7 | –
3 | N2-SKAP2 (SRC kinase adaptor phosphoprotein 2, wildtype) (from UniProt O75563) R140M; D129K | 0.84 | 0.86 | – | – | –
4 | C1-fused HCK (hematopoietic cell kinase), wildtype (from UniProt P08631-2) I309A; T311A | – | – | 0.29 | 0.07 | response (normalized NLR) ([5]; parent: est. 85): 16; response (NLR normalized to HCK-N1) [5]: 0.1
5 | N2-SKAP2 (SRC kinase adaptor phosphoprotein 2, wildtype) (from UniProt O75563) E15A; R18A | 1.3 | 1.19 | – | – | –
6 | N2-SKAP2 (SRC kinase adaptor phosphoprotein 2, wildtype) (from UniProt O75563) Y75F; Y237F; Y261F | 0.76 | 1.01 | – | – | –
7 | C1-fused HCK (hematopoietic cell kinase), wildtype (from UniProt P08631-2) R150A | – | – | 8.4 | 2.9 | –
8 | N1-fused HCK (hematopoietic cell kinase), wildtype (from UniProt P08631-2) Y30F | – | – | 1.2 | 0.9 | –
9 | N1-fused HCK (hematopoietic cell kinase), wildtype (from UniProt P08631-2) R150A | – | – | 7.7 | 8.4 | –
10 | C1-fused HCK (hematopoietic cell kinase), wildtype (from UniProt P08631-2) Y390F | – | – | 3.8 | 0.42 | –
11 | N1-fused HCK (hematopoietic cell kinase), wildtype (from UniProt P08631-2) Y390F | – | – | – | 0.7 | –
12 | N1-fused HCK (hematopoietic cell kinase), wildtype (from UniProt P08631-2) I309A; T311A | – | – | 0.9 | 0.65 | response (NLR normalized to HCK-N1) [5]: 1
13 | N2-SKAP2 (SRC kinase adaptor phosphoprotein 2, wildtype) (from UniProt O75563) D129K | 1.55 | 2.27 | – | – | –
14 | N1-fused HCK (hematopoietic cell kinase), wildtype (from UniProt P08631-2) W234A | – | – | 0.6 | – | –
15 | N2-SKAP2 (SRC kinase adaptor phosphoprotein 2, wildtype) (from UniProt O75563) E15A; R18A; V24D; F27G; V28E | 0.41 | 0.48 | – | – | –
16 | N2-SKAP2 (SRC kinase adaptor phosphoprotein 2, wildtype) (from UniProt O75563) Y151F; Y197F | 0.8 | 0.71 | – | – | –
17 | C1-fused HCK (hematopoietic cell kinase), wildtype (from UniProt P08631-2) Y501F | – | – | 7.7 | 3.8 | –
18 | N2-SKAP2 (SRC kinase adaptor phosphoprotein 2, wildtype) (from UniProt O75563) V24D; F27G; V28E | 0.43 | 0.41 | – | – | –
19 | N2-SKAP2 (SRC kinase adaptor phosphoprotein 2, wildtype) (from UniProt O75563) R140M | 0.96 | 0.79 | – | – | –
20 | N2-SKAP2 (SRC kinase adaptor phosphoprotein 2, wildtype) (from UniProt O75563) D129K; Y75F; Y237F; Y261F | 0.88 | 1.63 | – | – | –
21 | N2-SKAP2 (SRC kinase adaptor phosphoprotein 2, wildtype) (from UniProt O75563) W336K | 1.64 | 1.48 | – | – | –
22 | C1-fused HCK (hematopoietic cell kinase), wildtype (from UniProt P08631-2) Y30F | – | – | 0.13 | 0.055 | –
23 | N2-SKAP2 (SRC kinase adaptor phosphoprotein 2, wildtype) (from UniProt O75563) V24D; F27G; V28E; D129K | 0.93 | 1.04 | – | – | –
